The target in one test is T1, colicin E9 DNase (ColE9) (E. coli, UniProt P09883 449-582).
T1 sequence: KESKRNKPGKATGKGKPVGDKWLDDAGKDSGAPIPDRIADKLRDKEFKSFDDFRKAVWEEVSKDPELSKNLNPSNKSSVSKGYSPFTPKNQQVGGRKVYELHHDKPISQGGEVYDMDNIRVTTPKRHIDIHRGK
The test can be described thus: not stated (running text of Example 4).

The target of test [1] is T2, colicin E7 DNase (ColE7) (E. coli, UniProt Q47112 444-576).
T2 sequence: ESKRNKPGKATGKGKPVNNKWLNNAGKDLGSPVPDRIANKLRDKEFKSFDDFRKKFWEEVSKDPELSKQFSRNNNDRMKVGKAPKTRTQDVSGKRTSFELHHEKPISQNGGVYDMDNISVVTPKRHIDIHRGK
Description: not stated (running text of Example 4).

The target in test [2] is T2, colicin E7 DNase (ColE7). The test can be described thus: cell-based or functional assay.
Test [3] addresses T2, colicin E7 DNase (ColE7). The test can be described thus: affinity measurements (Kleanthous laboratory; method not stated).

The text below walks through data of patent US20080004436A1 (YEDA RESEARCH AND DEVELOPMENT CO LTD AT THE WEIZMANN …, published 2008).

B1: immunity protein 7 (Im7), wild type (other)
chain: MELKNSISDYTEAEFVQLLKEIEKENVAATDDVLDVLLEHFVKITEHPDGTDLIYYPSDNRDDSPEGIVKEIKEWRAANGKPGFKQG
notes: also called wild-type Im7
In general, Kd refers to the equilibrium constant for the complex coming apart. A higher Kd goes with lower affinity. Broadly, the koff is the rate constant with which the complex falls apart. The kon is a measure of how fast the partners come together. A lower kon goes with slower complex formation. Consider B1, for which the Kd in the test with colicin E9 DNase (ColE9) came to 56000 pM. The molecule further came in with a Kd with colicin E7 DNase (ColE7) [1] of 0.00079 pM. Besides, in the test with colicin E7 DNase (ColE7) [2], the “ColE7 concentration at which full protection was observed, in vivo protection assay, 0.05 mM IPTG” value was more than 100 µM; the “ColE7 concentration at which full protection was observed, in vivo protection assay, 1 mM IPTG” value is more than 100 µM; the “ColE7 concentration at which full protection was observed, in vivo protection assay, w/o IPTG” value amounted to 100 µM. Further, in the test with colicin E7 DNase (ColE7) [3], the Kd is not above 0.01 pM, the off-rate constant (koff) was not above 1e-05 s⁻¹ and the kon came out at 7.6e+08 M⁻¹ s⁻¹.

B2: in vitro evolved Im9 variant #8 (Round 8, high stringency) (designed binder)
chain: MELKHRISDYTEAEFLQLVTTICDANASSEEELDKLITHFEEMTEHPSGSDLIYWPKEGDDDSPSGIVNTVKQWRAANGKSGFKQG
notes: also called Evolved Im variant#8; evolved variant 8
Consider B2, for which, in the test with colicin E7 DNase (ColE7) [3], the affinity, expressed as Kd, was 3.85 pM; the koff came to 0.0032 s⁻¹; the kon was found to be 8.3e+08 M⁻¹ s⁻¹.
